Ends that are not written are not given here.
Key:
BxPC-3 cells = experiment: In vitro cell blocking assay, BxPC-3; type: cell-based; settings: 1 h, 37 °C, n = 3
Protocol: Cell binding and internalization assay. Binding and internalization were determined as previously described. In brief, bovine serum albumin (BSA, 0.5% w/v in PBS) was used to pretreat the assay tubes to prevent non-specific binding. Aliquots of [64Cu]2 or [ 64Cu]PDC-1 (≤1 μL, 7.4-18.5 KBq in 50 μL PBS, pH = 7.4) were added to a cell suspension (3.75 × 10 6 cells in 50 μL serum free medium), incubated for 1 h at 37 °C, and gently agitated every 5 minutes (n = 3/cell line/compound). The cells were pelleted by centrifugation at 200×g for 3 min and the supernatant collected. The cell pellet was washed with 0.5 mL serum free medium and the wash medium combined with the original supernatant. […] The fraction of bound radioactivity was determined with a γ-counter (by measuring cell pellet and combined supernatants). To determine the fraction of internalized radioactivity, the cells were re-pelleted, and re-suspended in acidic wash buffer (0.2 M sodium acetate, 0.5 M sodium chloride, pH = 2.5, 300 μL, 4 °C, 5 min) to release surface bound activity, followed by a wash with PBS (300 μL). The internalized fraction was determined with a γ-counter (cell pellet vs. radioactivity released into supernatant). A Wizard 1470 or Wizard 2 2470 automatic γ-counter (Perkin-Elmer, Waltham, MA) was used to measure radioactivity samples. […]
Figure S3. […] Data are expressed as mean ± SD. […]

[1] = system: MDA-MB-435 breast cancer xenograft tumor model; settings: copper-64 labeled; 4 h; cited from earlier work
Excerpt: (§1) Wang et al. described a similar radiolabeling approach with copper-64 to imag ...

[2] = system: glioblastoma U87MG xenograft mouse model; settings: cited from earlier work
Excerpt: as §1

Molecule	Concentration of non-radioactive DOTA-PDC-1 required to block [64Cu]PDC-1 binding (BxPC-3 cells) [nM]	Tumor accumulation [1] [% ID/g]	Liver accumulation ([2]; 20 h, model not stated) [% ID/g]	Tumor uptake ([2]; copper-64 labeled, 4 h) [% ID/g]
CC[C@H](C)[C@@H]([C@@H](CC(=O)N1CCC[C@H]1[C@H](OC)[C@@H](C)C(=O)N[C@H](C)[C@@H](O)c1ccccc1)OC)N(C)C(=O)[C@@H](NC(=O)[C@H](C(C)C)N(C)C(=O)OCc1ccc(NC(=O)[C@H](CCCNC(N)=O)NC(=O)[C@@H](NC(=O)CCOCCOCCNC(=O)CCN2C(=O)CC(SC[C@H](NC(=O)CN3CCN(CC(=O)O)CCN(CC(=O)O)CCN(CC(=O)O)CC3)C(=O)NCCOCCOCCOCCOCCOCCOCCOCCOCCOCCOCCOCCOCCOCCOCCOCCOCCOCCOCCOCCOCCOCCOCCOCCOCCOCCOCCOCCOCCC(=O)N[C@@H](CC(N)=O)C(=O)N[C@@H](C)C(=O)N[C@H](C(=O)N3CCC[C@H]3C(=O)N[C@@H](CC(N)=O)C(=O)N[C@@H](CC(C)C)C(=O)N[C@@H](CCCNC(=N)N)C(=O)NCC(=O)N[C@@H](CC(=O)O)C(=O)N[C@@H](CC(C)C)C(=O)N[C@@H](CCC(N)=O)C(=O)N[C@H](C(=O)N[C@@H](CC(C)C)C(=O)N[C@@H](C)C(=O)N[C@@H](CCC(N)=O)C(=O)N[C@@H](CCCNC(=N)N)C(=O)N[C@H](C(=O)N[C@@H](C)C(=O)N[C@@H](CCCNC(=N)N)C(=O)N[C@H](C(=O)NCCOCCOCCOCCOCCOCCOCCOCCOCCOCCOCCOCCOCCOCCOCCOCCOCCOCCOCCOCCOCCOCCOCCOCCOCCOCCOCCOCCOCCC(N)=O)[C@@H](C)O)C(C)C)C(C)C)C(C)C)C2=O)C(C)C)cc1)C(C)C (stereo partly shown) [DOTA-PDC-1]	80 to 160	–	–	–
CDCRGDCFC (also: bicyclic or more (positions not given here)) [TNF-PDC]	–	3.94 ± 0.48	16.22 ± 1.46	8.11 ± 0.88
